Measured values from US20120276102A1 (Pfizer, published 2012).

Assays:
[1] = target: T1, human IL-21R expressed on cells (human, UniProt Q9HBE5 20-538); experiment: cell ELISA, CHO cells
T1 construct: also called human IL-21R-BaF3; human IL-21R-TF1

[2] = target: T2, human gamma (γ) common chain expressed on CHO cells (human, UniProt P31785 23-369); experiment: cell ELISA, CHO cells
T2 construct: whole, on cells; Control protein; also called human IL-2R-γ common subunit; human γ-common
T2 sequence (looked up): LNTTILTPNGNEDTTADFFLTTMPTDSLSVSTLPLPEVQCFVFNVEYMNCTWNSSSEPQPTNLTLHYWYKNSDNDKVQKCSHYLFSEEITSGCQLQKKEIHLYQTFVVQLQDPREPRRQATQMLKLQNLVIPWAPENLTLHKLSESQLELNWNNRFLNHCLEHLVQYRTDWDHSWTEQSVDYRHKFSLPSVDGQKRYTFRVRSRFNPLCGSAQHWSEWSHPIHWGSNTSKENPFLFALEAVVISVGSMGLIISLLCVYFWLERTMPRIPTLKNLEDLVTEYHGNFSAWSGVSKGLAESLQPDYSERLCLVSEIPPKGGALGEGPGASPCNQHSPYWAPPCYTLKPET

[3] = target: T3, cynomolgus monkey IL-21R expressed on cells (cynomolgus monkey, UniProt G7Q0S8 41-559); experiment: cell-based ELISA on CHO cells transiently expressing cynomolgus monkey IL-21R; HRP anti-human IgG, A450
T3 construct: whole, on cells
Description: (§1) FIG. 6(a-l) depicts the binding of 21 anti-IL-21R IgGs to CHO cells transiently expressing human IL-21R (FIGS. 6a-c), rat IL-21R (FIGS. 6d-f), cynomolgus monkey IL-21R (FIGS. 6g-i), and human gamma common chain (FIGS. 6j-1). CHO cells were transiently transfected with IL-21R or the control gamma common chain, and binding was detected with HRP-conjugated anti-human IgG in a cell-based ELISA.
(§2) A subset of binding proteins was tested for binding to rat, cynomolgus monkey, human IL-21R, or human IL-2R-γ common subunit expressed transiently on the surfaces of CHO-PA-Dukx cells. Cells were transfected 48 hr prior to the assay. On the day of the assay, cells were washed gently 5× in PBS containing 0.9 mM CaCl₂ and 0.45 mM MgCl₂ (PBS/CaMg) on an automated plate washer (Titertek, Huntsville, Ala.), and blocked for 1 hr at RT in PBS/CaMg/5% nonfat dry milk. Conditioned media from transiently expressed anti-IL-21R IgGs were serially diluted in blocking buffer and added to the cells in the blocked plates for 1 hr at RT. Cells were washed 5× with PBS/CaMg and then incubated with horseradish peroxidase-conjugated anti-human IgG for 1 hr at RT. Cells were then washed 10× in PBS/CaMg and all of the wash buffer was removed. Cells were incubated with 100 μl TMB until the color reaction reached saturation, stopped with 100 μl of 0.18 M H₂SO₄, and read at A450 on a Perkin Elmer ENVISION™ plate reader.

[4] = target: T4, human complement component C1q (human, UniProt P02745 23-245; P02746 28-253; P02747 29-245); experiment: C1q ELISA: antibody coated on the plate, human serum 1:50, chicken anti-human C1q and HRP anti-chicken IgY
T4 construct: Native C1q in diluted human serum
T4 sequence (P02745 23-245, chain 1 of 3): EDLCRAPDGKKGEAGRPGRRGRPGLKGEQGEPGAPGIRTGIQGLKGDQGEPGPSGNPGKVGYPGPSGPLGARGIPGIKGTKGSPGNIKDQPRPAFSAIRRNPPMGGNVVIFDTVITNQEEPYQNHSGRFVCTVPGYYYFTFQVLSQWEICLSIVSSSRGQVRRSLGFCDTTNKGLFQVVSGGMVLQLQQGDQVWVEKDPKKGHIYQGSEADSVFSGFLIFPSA
T4 sequence (P02746 28-253, chain 2 of 3): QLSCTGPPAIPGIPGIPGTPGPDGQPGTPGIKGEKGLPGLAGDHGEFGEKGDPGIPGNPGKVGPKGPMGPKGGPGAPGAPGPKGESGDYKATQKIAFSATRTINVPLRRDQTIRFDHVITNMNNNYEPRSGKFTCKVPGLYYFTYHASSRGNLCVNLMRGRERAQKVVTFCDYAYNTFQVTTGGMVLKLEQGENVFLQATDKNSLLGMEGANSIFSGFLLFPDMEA
T4 sequence (P02747 29-245, chain 3 of 3): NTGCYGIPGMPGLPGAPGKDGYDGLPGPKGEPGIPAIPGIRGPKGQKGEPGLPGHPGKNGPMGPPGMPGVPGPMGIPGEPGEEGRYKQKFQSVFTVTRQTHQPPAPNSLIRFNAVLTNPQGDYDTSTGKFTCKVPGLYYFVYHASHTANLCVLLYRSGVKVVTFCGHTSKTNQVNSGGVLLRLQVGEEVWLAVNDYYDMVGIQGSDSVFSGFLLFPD
Description: In order to determine whether cell-surface binding by anti-IL-21R antibodies is likely to lead to complement-dependent cytotoxicity (CDC), the antibodies were tested for their ability to bind to the complement component C1q in an ELISA. […] Diluted antibodies (100 μl) were coated onto a COSTAR® high-binding ELISA plate (Corning Life Sciences, Lowell, Mass.) overnight at 4° C. Plates were washed 3× with PBS/Tween-20 and blocked with 200 μl of blocking buffer (0.1 M NaPO₄, 0.1 M NaCl, 0.1% gelatin, 0.01% Tween) for 1 hr at RT. Human serum previously determined to contain C1q (Quidel, San Diego, Calif.) was diluted 1:50 in PBS. After 1 hr of blocking, plates were washed and 100 μl of diluted serum was added to each well and incubated for 2 hr at RT on a shaker. Following three washes, 100 μl A of 0.1 μg/ml chicken polyclonal anti-human C1q antibody (AbCam, Cambridge, Mass.) was added to each well and incubated for 1 hr at RT. Plates were again washed and incubated with 100 μA of a rabbit polyclonal antibody to chicken Ig-Y—HRP diluted 1:4000 (AbCam) for 1 hr at RT. Plates were washed and developed with TMB for 5 min, followed by 50 μA of 1 M H₂SO₄ to stop the reaction, and then read at 450 nm.

[5] = target: T5, rat IL-21R expressed on cells (rat); experiment: cell-based ELISA on CHO cells transiently expressing rat IL-21R; HRP anti-human IgG, A450
T5 construct: whole, on cells
Description: as §1, §2

[6] = target: T1, human IL-21R expressed on cells; experiment: cell-based or functional assay
[7] = target: murine IL-21R expressed on cells (murine, UniProt Q9JHX3 20-529); experiment: cell-based or functional assay
murine IL-21R expressed on cells, sequence (Q9JHX3 20-529 limits assumed): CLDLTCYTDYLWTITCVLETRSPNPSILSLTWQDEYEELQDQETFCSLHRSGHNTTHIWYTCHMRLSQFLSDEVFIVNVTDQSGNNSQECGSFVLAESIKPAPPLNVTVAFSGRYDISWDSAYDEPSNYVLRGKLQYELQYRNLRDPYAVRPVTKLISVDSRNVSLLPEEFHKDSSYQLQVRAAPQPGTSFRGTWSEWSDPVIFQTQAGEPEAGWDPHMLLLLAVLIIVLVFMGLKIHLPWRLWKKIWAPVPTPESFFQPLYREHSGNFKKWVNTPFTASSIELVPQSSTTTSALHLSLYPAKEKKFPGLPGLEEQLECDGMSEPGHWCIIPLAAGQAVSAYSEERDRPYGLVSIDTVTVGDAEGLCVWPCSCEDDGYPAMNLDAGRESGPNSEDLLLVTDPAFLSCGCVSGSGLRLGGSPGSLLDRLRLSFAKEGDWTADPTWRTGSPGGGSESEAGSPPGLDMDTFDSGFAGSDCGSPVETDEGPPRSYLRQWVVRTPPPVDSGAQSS

[8] = target: T5, rat IL-21R expressed on cells; experiment: cell-based or functional assay
[9] = target: T6, rabbit IL-21R-Fc isoform 1 (rabbit); experiment: ELISA; competitor 10% conditioned medium containing rabbit IL-21
T6 construct: extracellular domain

[10] = target: T7, rabbit IL-21R-Fc isoform 2 (rabbit); experiment: as above
T7 construct: extracellular domain

T1 sequence (Q9HBE5 20-538 limits assumed): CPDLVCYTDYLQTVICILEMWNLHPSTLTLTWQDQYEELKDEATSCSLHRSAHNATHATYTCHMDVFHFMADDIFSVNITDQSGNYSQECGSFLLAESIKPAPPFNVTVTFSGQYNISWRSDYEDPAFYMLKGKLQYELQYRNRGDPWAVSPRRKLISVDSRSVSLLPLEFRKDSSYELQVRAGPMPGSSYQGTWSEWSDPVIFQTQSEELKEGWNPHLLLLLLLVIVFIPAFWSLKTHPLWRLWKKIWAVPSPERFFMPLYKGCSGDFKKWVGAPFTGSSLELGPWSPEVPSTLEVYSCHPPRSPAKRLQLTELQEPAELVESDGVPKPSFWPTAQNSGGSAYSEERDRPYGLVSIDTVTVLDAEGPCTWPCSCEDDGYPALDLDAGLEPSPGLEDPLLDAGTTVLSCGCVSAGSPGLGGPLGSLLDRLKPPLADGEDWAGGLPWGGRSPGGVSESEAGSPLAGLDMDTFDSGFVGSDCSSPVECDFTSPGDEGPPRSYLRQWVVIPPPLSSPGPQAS

B1: AbP (antibody, human IgG1, V domains shown)
VH: QVQLQESGPGLVKPSETLSLTCAVSGYSISSGYYWGWIRQPPGKGLEWIGSISHTGNTYYNPPLKSRVTISVDTSKNQFSLKLSSVTAADTAVYYCARGGGISRPEYWGQGTLVTVSS
VL: SSELTQDPAVSVALGQTVRITCQGDSLRTYYASWYQQKPGQAPVLVIYGKHKRPSGIPDRFSGSSSGNTASLTITGAQAEDEADYYCVSRSAKGNPHVLFGGGTQLTVL
notes: CDR3 graft, residue limits derived as for m29; also called VHP/VL20; VHPTM/VL20
- A450 (13 nM Ab) [1]: 1.31 A450
- A450 (13 nM Ab) [2]: 0.112 A450
- EC50 (read off the curve) [3]: ~0.7 nM
- binding result [4]: no binding

B2: AbQ (antibody, human IgG1, V domains shown)
VH: QVQLQESGPGLVKPSETLSLTCAVSGYSISSGYYWGWIRQPPGKGLEWIGSISHTGNTYYNPPLKSRVTISVDTSKNQFSLKLSSVTAADTAVYYCARFMGFGRPEYWGQGTLVTVSS
VL: SSELTQDPAVSVALGQTVRITCQGDSLRTYYASWYQQKPGQAPVLVIYGKHKRPSGIPDRFSGSSSGNTASLTITGAQAEDEADYYCVARSVVGNPHVLFGGGTQLTVL
notes: CDR3 graft, residue limits derived as for m29; also called VH3/VL2; VH3DM/VL2
- A450 (13 nM Ab) [1]: 1.25 A450
- A450 (13 nM Ab) [2]: 0.125 A450
- EC50 (read off the curve) [5]: ~0.8 nM
- EC50 (read off the curve) [3]: ~0.7 nM

B3: AbR (antibody, human IgG1, V domains shown)
VH: QVQLQESGPGLVKPSETLSLTCAVSGYSISSGYYWGWIRQPPGKGLEWIGSISHTGNTYYNPPLKSRVTISVDTSKNQFSLKLSSVTAADTAVYYCARFMGFGRPEYWGQGTLVTVSS
VL: SSELTQDPAVSVALGQTVRITCQGDSLRTYYASWYQQKPGQAPVLVIYGKHKRPSGIPDRFSGSSSGNTASLTITGAQAEDEADYYCVTRSVKGNPHVLFGGGTQLTVL
notes: CDR3 graft, residue limits derived as for m29; also called VH3/VL18; VH3DM/VL18
- A450 (13 nM Ab) [1]: 1.33 A450
- A450 (13 nM Ab) [2]: 0.109 A450
- Human IL-21R-BaF3 Neutralization IC50 [6]: 0.56 nM
- Human IL-21R-TF1 Neutralization IC50 [6]: 1.63 nM
- Murine IL-21R-BaF3 Neutralization IC50 [7]: 0.34 nM
- EC50 (read off the curve) [5]: ~0.7 nM
- EC50 (read off the curve) [3]: ~1 nM

B4: AbS (antibody, V domains shown)
VH: QVQLQESGPGLVKPSETLSLTCAVSGYSISSGYYWGWIRQPPGKGLEWIGSISHTGNTYYNPPLKSRVTISVDTSKNQFSLKLSSVTAADTAVYYCARGGGISRPEYWGQGTLVTVSS
VL: SSELTQDPAVSVALGQTVRITCQGDSLRTYYASWYQQKPGQAPVLVIYGKHKRPSGIPDRFSGSSSGNTASLTITGAQAEDEADYYCMSRSIWGNPHVLFGGGTQLTVL
notes: CDR3 graft, residue limits derived as for m29; also called VHP/VL6; VHPTM/VL6
- A450 (13 nM Ab) [1]: 1.02 A450
- A450 (13 nM Ab) [2]: 0.118 A450
- Human IL-21R-BaF3 Neutralization IC50 [6]: 0.68 nM
- Human IL-21R-TF1 Neutralization IC50 [6]: 6.67 nM
- Murine IL-21R-BaF3 Neutralization IC50 [7]: 0.04 nM
- IC50, rat T cell proliferation, experiment 1 [8]: 36 nM
- IC50, rat T cell proliferation, experiment 2 [8]: 27.1 nM
- fold reduction of binding in the presence of rabbit IL-21 [9]: ~10 fold
- fold reduction of binding in the presence of rabbit IL-21 [10]: ~10 fold
- EC50 (read off the curve) [5]: ~1 nM
- EC50 (read off the curve) [3]: ~0.5 nM
- binding result [4]: no binding

B5: AbT (antibody, human IgG1, V domains shown)
VH: QVQLQESGPGLVKPSETLSLTCAVSGYSISSGYYWGWIRQPPGKGLEWIGSISHTGNTYYNPPLKSRVTISVDTSKNQFSLKLSSVTAADTAVYYCARGGGISRPEYWGQGTLVTVSS
VL: SSELTQDPAVSVALGQTVRITCQGDSLRTYYASWYQQKPGQAPVLVIYGKHKRPSGIPDRFSGSSSGNTASLTITGAQAEDEADYYCVARSNKGNPHVLFGGGTQLTVL
notes: CDR3 graft, residue limits derived as for m29; also called VHP/VL9; VHPTM/VL9
- A450 (13 nM Ab) [1]: 1.08 A450
- A450 (13 nM Ab) [2]: 0.102 A450
- Human IL-21R-BaF3 Neutralization IC50 [6]: 0.3 nM
- Human IL-21R-TF1 Neutralization IC50 [6]: 2.32 nM
- Murine IL-21R-BaF3 Neutralization IC50 [7]: 0.05 nM
- EC50 (read off the curve) [5]: ~1 nM
- EC50 (read off the curve) [3]: ~0.6 nM

B6: AbU (antibody, human IgG1, V domains shown)
VH: QVQLQESGPGLVKPSETLSLTCAVSGYSISSGYYWGWIRQPPGKGLEWIGSISHTGNTYYNPPLKSRVTISVDTSKNQFSLKLSSVTAADTAVYYCARGGGISRPEYWGQGTLVTVSS
VL: SSELTQDPAVSVALGQTVRITCQGDSLRTYYASWYQQKPGQAPVLVIYGKHKRPSGIPDRFSGSSSGNTASLTITGAQAEDEADYYCTTRSNKGNPHVLFGGGTQLTVL
notes: CDR3 graft, residue limits derived as for m29; also called VHP/VL25; VHPTM/VL25
- A450 (13 nM Ab) [1]: 1.29 A450
- A450 (13 nM Ab) [2]: 0.104 A450
- IC50, rat T cell proliferation, experiment 1 [8]: 173 nM
- IC50, rat T cell proliferation, experiment 2 [8]: 105 nM
- EC50 (read off the curve) [3]: ~0.7 nM
- binding result [4]: no binding

B7: AbO (antibody, human IgG1, V domains shown)
VH: QVQLQESGPGLVKPSETLSLTCAVSGYSISSGYYWGWIRQPPGKGLEWIGSISHTGNTYYNPPLKSRVTISVDTSKNQFSLKLSSVTAADTAVYYCARGGGISRPEYWGQGTLVTVSS
VL: SSELTQDPAVSVALGQTVRITCQGDSLRTYYASWYQQKPGQAPVLVIYGKHKRPSGIPDRFSGSSSGNTASLTITGAQAEDEADYYCVTRSAKGNPHVLFGGGTQLTVL
notes: CDR3 graft, residue limits derived as for m29; also called VHP/VL16; VHPTM/VL16
- A450 (13 nM Ab) [1]: 1.11 A450
- A450 (13 nM Ab) [2]: 0.108 A450
- EC50 (read off the curve) [5]: ~0.4 nM
- EC50 (read off the curve) [3]: ~0.5 nM
- binding result [4]: no binding

B8: parental 18A5 antibody (antibody, V domains shown)
VH: QVQLQESGPGLVKTSETLSLTCAVSGYSISSGYYWGWIRQPPGKGLEWIGSISHTGNTYYNPPLKSRVTISVDTSKNQFSLKLSSVTAADTAVYYCARGGGISRPEYWGKGTLVTVSS
VL: SSELTQDPPVSVALGQTVTLTCQGDSLRTYYASWYQQKSGQAPILLLYGKHKRPSGIPDRFSGSTSGDTASLTITGAQAEDEADYYCNSRDSSGNPHVLFGGGTQLTVL
notes: also called 18A5 IgG
- Human IL-21R-BaF3 Neutralization IC50 [6]: 1.71 nM
- Human IL-21R-TF1 Neutralization IC50 [6]: 14 nM
- Murine IL-21R-BaF3 Neutralization IC50 [7]: 177 nM
- EC50 (read off the curve) [3]: ~0.4 nM
